# From the supplement of paper PMC11908140
# B1: library; numbered along this chain (parent)
# chain: MRKPRAAVGSGHRKQAASQEGRQKHAKNNSQAKPSACDGLARQPEEVVLQASVSSYHLFRDVAEVTAFRGSLLSWYDQEKRDLPWRRRAEDEMDLDRRAYAVWVSEVMLQQTQVATVINYYTGWMQKWPTLQDLASASLEEVNQLWAGLGYYSRGRRLQEGARKVVEELGGHMPRTAETLQQLLPGVGRYTAGAIASIAFGQATGVVDGNVARVLCRVRAIGADPSSTLVSQQLWGLAQQLVDPARPGDFNQAAMELGATVCTPQRPLCSQCPVESLCRARQRVEQEQLLASGSLSGSPDVEECAPNTGQCHLCLPPSEPWDQTLGVVNFPRKASRKPPREESSATCVLEQPGALGAQILLVQRPNSGLLAGLWEFPSVTWEPSEQLQRKALLQELQRWAGPLPATHLRHLGEVVHTFSHIKLTYQVYGLALEGQTPVTTVPPGARWLTQEEFHTAAVSTAMKKVFRVYQGQQPGTCMGSKRSQVSSPCSRKKPRMGQQVLDNFFRSHISTDAHSLNSAAQ
# Variants of: B1
# Assay: 8OG:A repair function score (normalized; synonymous = 0, nonsense = -1) (normalized log-likelihood score); higher = more repair activity (WT-like)
# Conditions: with 8OG:A DNA repair reporter (GFP) in HEK-293 MUTYH KO cells
# Method in brief: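 GFP+ (repair) and GFP− bins of viable mCherry+ cells were collected at 72 h from MUTYH knockout HEK-293 cells bearing lentiviral MUTYH cDNA NNN codon-scan libraries in 10 pg/ml doxycycline, co-transfected with an 8OG:A GFP repair reporter and mCherry. Tile amplicons were sequenced, and per-tile Rosace fitness scores were normalized to a repair function score anchored on synonymous and nonsense distributions. Synonymous medians were set to 0 and nonsense to -1, with variants under 300 counts per million at the start removed.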
# 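Also: cells sorted at 72 h after reporter transfection.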
row,Variant,8OG:A repair function score
1,S487L,-5.82e-05
2,S487I,-0.00284
3,S487Q,-0.00246
4,S487W,-0.00878
5,S487N,0.0119
6,S487R,0.0273
7,S487Y,0.00217
8,S487F,-0.00307
9,S487E,0.00844
10,S487P,-0.0175
11,S487C,0.0168
12,S487M,0.0121
13,S487A,0.0181
14,S487T,-0.0203
15,S487V,0.0175
16,S487K,0.0147
17,S487G,-0.00491
18,S487H,0.00963
19,S487D,0.0137
20,R491F,0.0113
21,R491Q,-0.00572
22,R491V,0.0088
23,R491N,-0.0106
24,R491E,0.0286

row,Variant,8OG:A repair function score
1,R491S,0.00574
2,R491T,0.0121
3,R491M,0.0281
4,R491G,0.00614
5,R491P,-0.0953
6,R491C,-0.013
7,R491L,-0.00252
8,R491H,0.0282
9,R491Y,-0.0848
10,R491K,0.0262
11,R491I,0.0211
12,R491D,0.0052
13,R491W,-0.00998
14,R491A,0.00371
15,M496N,0.00145
16,M496L,-0.0124
17,M496C,-0.00499
18,M496H,0.0281
19,M496R,0.0258
20,M496F,0.0105
21,M496V,-0.0328
22,M496K,0.00764
23,M496A,0.0241
24,M496T,-0.0187

row,Variant,8OG:A repair function score
1,M496Y,0.00737
2,M496E,0.00855
3,M496D,0.00779
4,M496S,-0.0675
5,M496W,-0.045
6,M496G,-0.00643
7,M496I,-0.0358
8,M496P,-3.86e-05
9,M496Q,-0.106
10,K492V,-0.0261
11,K492Y,-0.0316
12,K492W,0.0127
13,K492T,-0.00293
14,K492H,-0.0225
15,K492C,0.0201
16,K492D,-0.0117
17,K492S,-0.0044
18,K492G,-0.00555
19,K492A,0.0165
20,K492I,0.0148
21,K492P,0.0192
22,K492F,-0.0038
23,K492Q,0.0192
24,K492M,0.015

row,Variant,8OG:A repair function score
1,K492E,0.022
2,K492N,-0.00159
3,K492L,-0.0333
4,K492R,-0.0207
5,R495Q,-0.0181
6,R495W,0.0272
7,R495L,0.017
8,R495N,-0.129
9,R495D,0.0213
10,R495C,-0.00275
11,R495P,0.0276
12,R495E,0.0282
13,R495H,0.00173
14,R495T,0.0177
15,R495I,-0.0255
16,R495G,-0.0152
17,R495V,0.0193
18,R495M,0.0166
19,R495Y,-0.0924
20,R495A,-0.0255
21,R495F,-0.0118
22,R495S,0.013
23,R495K,0.00711
24,G479M,-0.0116

row,Variant,8OG:A repair function score
1,G479N,-0.00734
2,G479S,0.00355
3,G479P,0.0129
4,G479W,-0.0628
5,G479T,-0.0258
6,G479V,0.00419
7,G479Y,0.025
8,G479Q,0.0264
9,G479R,-0.0309
10,R482C,0.0254
11,R482Q,0.0234
12,R482V,0.00231
13,R482A,0.0234
14,R482H,-0.0234
15,R482I,-0.00811
16,R482K,0.021
17,R482L,0.00831
18,R482S,0.0216
19,R482F,0.0283
20,R482T,-0.0344
21,R482N,-0.0127
22,R482Y,0.0178
23,R482G,0.0105
24,R482E,0.00949

row,Variant,8OG:A repair function score
1,R482W,0.0248
2,R482M,-0.00466
3,R482P,0.0273
4,R482D,-0.000963
5,S480K,0.0154
6,S480L,-0.0111
7,S480T,0.0286
8,S480Q,-0.00583
9,S480W,0.022
10,S480A,0.0216
11,S480I,-0.0226
12,S480M,0.0231
13,S480F,-0.0271
14,S480D,0.0166
15,S480P,-0.000393
16,S480G,0.00341
17,S480E,-0.00292
18,S480N,0.0064
19,S480R,0.00162
20,S480C,-0.0352
21,S480Y,-0.0114
22,S480H,0.0192
23,S480V,0.00525
24,K481H,-0.0426

row,Variant,8OG:A repair function score
1,K481W,-0.0431
2,K481F,0.0166
3,K481V,-0.0202
4,K481D,0.016
5,K481A,-0.00494
6,K481S,-0.00188
7,K481N,-2.28e-05
8,K481Y,-0.0542
9,K481M,-0.00967
10,K481I,0.000486
11,K481T,-0.0524
12,K481E,-0.00514
13,K481Q,-0.00252
14,K481L,-0.0084
15,K481P,0.00979
16,K481C,0.0191
17,K481G,-0.0136
18,K481R,0.0229
19,V485I,0.0128
20,V485R,0.0173
21,V485P,-0.0106
22,V485T,0.00314
23,V485D,0.0102
24,V485M,0.0202

row,Variant,8OG:A repair function score
1,V485L,0.0118
2,V485E,-0.0478
3,V485H,0.0165
4,V485G,-0.0147
5,V485Y,-0.0379
6,V485N,-0.00234
7,V485Q,-0.0322
8,V485C,0.0143
9,V485S,0.0216
10,V485F,0.0143
11,V485W,-0.0552
12,V485K,-0.00358
13,V485A,-0.00727
14,P488Q,-0.00562
15,P488Y,-0.0629
16,P488N,0.00623
17,P488G,0.0021
18,P488H,0.0202
19,P488W,-0.00344
20,P488V,-0.00252
21,P488A,-0.0161
22,P488T,0.00629
23,P488C,-0.0233
24,P488I,0.0151

row,Variant,8OG:A repair function score
1,P488E,-0.0239
2,P488D,-0.00371
3,P488M,-0.0122
4,P488L,0.00539
5,P488R,0.0168
6,P488S,0.00249
7,P488K,0.0286
8,P488F,-0.042
9,S486N,0.00666
10,S486C,-0.016
11,S486K,-0.0131
12,S486I,-0.0359
13,S486T,0.0101
14,S486G,0.0224
15,S486M,-0.00979
16,S486R,-0.0146
17,S486L,0.00981
18,S486V,-0.00598
19,S486D,0.00623
20,S486H,0.026
21,S486W,0.0129
22,S486F,0.00694
23,S486A,0.00239
24,S486Y,0.00541

row,Variant,8OG:A repair function score
1,S486P,0.0275
2,S486E,0.0262
3,S486Q,-0.0168
4,G497C,-0.127
5,G497A,-0.0723
6,P494G,-0.0242
7,P494E,0.0133
8,P494F,-0.0209
9,P494L,-0.00201
10,P494I,0.0172
11,P494A,0.0124
12,P494K,-0.0663
13,P494V,-0.0025
14,P494R,0.00547
15,P494S,-0.00543
16,P494Y,-0.00726
17,P494T,0.0124
18,P494N,0.0224
19,P494W,-0.0155
20,P494D,-0.00383
21,P494M,-0.0511
22,P494C,0.0281
23,P494H,0.015
24,P494Q,-0.000555

row,Variant,8OG:A repair function score
1,S490F,-0.0204
2,S490C,-0.0291
3,S490L,0.0149
4,S490E,-0.0309
5,S490I,-0.0509
6,S490V,-0.0138
7,S490G,-0.0115
8,S490H,-0.00447
9,S490M,-0.0481
10,S490R,0.00301
11,S490Q,0.0011
12,S490W,-0.0113
13,S490P,-0.0172
14,S490T,0.0117
15,S490A,-0.00415
16,S490K,0.00805
17,S490Y,-0.00381
18,S490N,0.0157
19,S490D,-0.0147
20,C489P,-0.00598
21,C489W,0.0227
22,C489H,0.0276
23,C489T,0.00493
24,C489A,-0.00252

row,Variant,8OG:A repair function score
1,C489I,-0.0718
2,C489G,0.00751
3,C489F,-0.0128
4,C489L,0.0177
5,C489V,-0.0255
6,C489D,0.013
7,C489Y,0.00164
8,C489E,0.0219
9,C489R,-0.0027
10,C489N,0.0265
11,C489K,-0.0226
12,C489M,0.00595
13,C489S,0.0134
14,C489Q,-0.0376
15,Q484Y,0.00945
16,Q484I,-0.0366
17,Q484T,0.0125
18,Q484N,0.0201
19,Q484A,0.00718
20,Q484S,-0.0175
21,Q484P,0.0115
22,Q484R,0.00822
23,Q484W,0.00872
24,Q484L,0.00769

row,Variant,8OG:A repair function score
1,Q484C,-0.0119
2,Q484F,-0.005
3,Q484M,0.0126
4,Q484G,0.00288
5,Q484V,-0.0109
6,Q484K,0.0117
7,Q484E,0.022
8,Q484D,-0.0184
9,Q484H,0.0028
10,K493F,-0.0124
11,K493H,0.0281
12,K493G,0.0135
13,K493R,-0.00709
14,K493S,0.0155
15,K493E,0.0199
16,K493L,-0.025
17,K493I,-0.0174
18,K493N,0.0279
19,K493M,-0.00762
20,K493W,0.00262
21,K493P,0.0123
22,K493A,0.0129
23,K493V,-0.0351
24,K493C,-0.00147

row,Variant,8OG:A repair function score
1,K493D,0.0108
2,K493Y,0.00504
3,K493Q,-0.107
4,K493T,0.0143
5,S483W,-0.033
6,S483I,-0.00113
7,S483V,0.0104
8,S483P,0.0199
9,S483K,-0.04
10,S483N,0.0224
11,S483F,0.0169
12,S483Y,-0.0745
13,S483T,-0.0473
14,S483L,0.00323
15,S483A,0.00092
16,S483C,0.025
17,S483M,-0.00708
18,S483G,-0.0331
19,S483E,-0.0311
20,S483H,0.00458
21,S483D,0.0208
22,S483R,0.0251
